From a protein production outcome set (Wang et al. 2014)

Assay: label from the status in PepcDB records

**Q.** For “MSTDKSKTRELILNGNLYKVLFLISFPIVITNIIQAFYDLTDMFYVGKLGAMPLSALSLAGPVNFFIIAIAMGMATGSISLMSKCIGEGNFSRFSRYAGQLIVLNFVLSLFVTICAFFFIDHLLDLLGVKGELKELSRVYFYVTIFAIPIMFLSISITYILNAQGETILSMTIVLFANIVNFILDPILIFSFNMGITGAAWATLFSKLLTVVFYLFLTYRLNYGLKIHLKDLVIDIRSIKEIVNLGLPSTFGQIMVSLSFFIFNYIVIEISPKFLAAYGLTNTIISFLFLPAMGIGTGIISIVGQNLGAKKVNRVEEVLKKGFFISLAILLIINSIVIFNKQFILRLFTNDLEVLNYANNYLLLTTIGTFGYGLQQVFFGGLIGSGRTKIAMIVIFIRLWLIRLPVVFIFQYFGIMENSLGYAFIISNYLAIIILIAFTCTRYWVKPILIKKYK”, which protein production is on record?
**A.** failed

**Q.** With “MSTFGKLFRVTTYGESHCKSVGCIVDGVPPGMSLTEADIQPQLTRRRPGQSKLSTPRDEKDRVEIQSGTEFGKTLGTPIAMMIKNEDQRPHDYSDMDKFPRPSHADFTYSEKYGIKASSGGGRASARETIGRVASGAIAEKFLAQNSNVEIVAFVTQIGEIKMNRDSFDPEFQHLLNTITREKVDSMGPIRCPDASVAGLMVKEIEKYRGNKDSIGGVVTCVVRNLPTGLGEPCFDKLEAMLAHAMLSIPASKGFEIGSGFQGVSVPGSKHNDPFYFEKETNRLRTKTNNSGGVQGGISNGENIYFSVPFKSVATISQEQKTATYDGEEGILAAKGRHDPAVTPRAIPIVEAMTALVLADALLIQKARDFSRSVVH” as the sequence, how does the protein production read?
**A.** not failed

**Q.** Which protein production does the source give for “MSTGQAPEKSNFSQRCSLLSRYLKEKGSFGNINMGLARKSDLELAGKFDLKGQQNVIKKVETSETRPFKLIQKFSIGEASTSTEDKAIYIDLSEPAKVAPESGNSQLTIFFGGKVMVFNEFPEDKAKEIMEVAKEANHVAVDSKNSQSHMNLDKSNVVIPDLNEPTSSGNNEDQETGQQHQVVERIARRASLHRFFAKRKDRAVARAPYQVNQHGSHLPPKPEMVAPSIKSGQSSQHIATPPKPKAHNHMPMEVDKKEGQSSKNLELKL” here?
**A.** failed

**Q.** Which protein production does the source give for “MSTKTGNYISIAIFAFFGGIARAWLNSSFGFYGTFWGNIIGCFLLAFFTYLFMEFKDVRQWLTVGLGTGFVGAFTTFSTFNLDVLKNIQANVPITALIYFLSSIIFGFCFAYLGMNAGKQVGNLLRKED” here?
**A.** failed

**Q.** Which protein production does the source give for “MSTKTVHYPWFKKEDIDAFFALFQNNLANFVIIAVTMIGLGFPASLVFGKVIPGVAVAVIVGNLYYAYMANRLAQKESRSDVTALSYGISTPVMFVFLFGILAPALALTGDPELAWKIGLAAAFLSGFIELLVSFTGNWVRKHLPRPAMLGALAGVAVTFIAGEMLFQVFSIPVVGLVALAIILLGVVGKVTLPFNIPPSLCAVIIGTVLAFVLGYQSANTLQDSLANIGLYPILPSLGAFEGFGYLFGPLVGLLAILLPITIYNAIETMNNVDAMAAAGDSYDVRECQAVDGVGTMIGAVFGGLFPTTVYIATVGSKWMGAGRGYSILNALVFAITAVTGVIAALSELIPLAAVAPILVFVGMSMVVTAFDPNDRKYYPAVALAMLPYVANYVMTRFNNNAGEVVQGISEGIVPLGQGAMFTAIILGAIAVCIIDKQFIKAAVFSLIGAGLSFAGFMHAPELSFNAAPDYSLGYLCIAILFSYCAFRKTSKEAVASPSTLSSKRVAS” here?
**A.** failed

**Q.** For “MSTLQRRRVNRADSGDTSSIHSSANNTKGDKIANIAVDGDDDNGTNKKIAYDPEESKLRDNINIPTLTLMEEVLLMGLRDREGYLSFWNDSISYALRGCIIIELALRGKIRILDDSARKRFDLSERLIEVIDSSKTGEVLLDETLQLMKNDEPLSISNWIDLLSGETWNLLKINYQLKQVRERLAKGLVDKGVLRTEMKNFFLFDMATHPIADASCKEAIKRRVLSVLVSRNMELSYNEYFPETTSFKIIRTLALICGSYGANVLENVLTTLEYEKRDKAISRAEEIMAQFSQYPFDLEKETELGVSVNLNKEVKEEIENNPGHDLQLEVIAGVFEVFSRMDMLL”, which protein production is on record?
**A.** failed

**Q.** Which protein production does the source give for “MSTPDGDEKEQCFHRAIAKTSIYLDREPGNPELTVWLAINKASLAGAQGGFGALSLAKEAKSLLEGVIATSPQTLDGSAYTSLGSLYYKVPGWPIGFGDDDKAEEMLKKALEINPKGIDPNYFYGDFLAEEGRDKEAKVYLTRAMQASPRPLEHHHHHH” here?
**A.** failed

**Q.** Which protein production does the source give for “MSTPETYKRSALNPETSLLLFLVPNPSNLTPISYTLTIPPPHEKTMLDKHGLLTQPISDVLRKLTTPMVFGMVAILLFNLVDTFFISLLGTDALAAVSFTFPVTFAVNCITMGIGVGLSASIGHLLGEGHSKHAAELTTHGIILAISLILIACALGFFTIDPLFTLLGAEDKLLPLIDEYMSIWYLTIPLLVIPMSSNSAIRATGDTKTPAKIMMLAGLINGILDPLLIFGYGPFPELGIQGAAIASAISWLGALIASFYVLTHKVKLLALPNKNTLISDWKQILTIGSPAALSNALNPISGAILMMMLASQGTVAVASYGAAQRVESLMLLVIMALTSSLSPLVAQNLGAKQPERVKEAIFLAIKFSVAFQLFLYILIVPLSIPISHLFSQDDAVQHGLWMYLICVPFSYGFQGIVMVLVSSLNAMKKPLYSFSWSFMRLFVFTLPTAWIGSQIYGMEGLFIGIAMGNVMGGISAFWYARTRIRFEDAALEERGDTKS” here?
**A.** failed

**Q.** Which protein production does the source give for “MSTRLCEPSLRDDGAQRGTPASHGKWCDTGAFKLDETPSPVVANVSSTSDASFQFNRTPSPGKHQNHAADRSMWSLDDFVIIRKLDEGRFGKVYLAREKQSKCAVVLKCISKDMIRFHSLAHQLQREVELQEYAGRYHKNVLRLFAYFWDDVRIVLVLEYADSGTLQDLLDCYREKEQRSSLPDDKVRTILLQLLSALAFLHERDIIHRDVKPDNILFHGEKLLLADFSWAVRVNNSDPRYCRRHTVCGTLDYLAPEQVLKRGCTTKADLWAVGVVAYRMLCGFLPFEMLDARDVCSCIASGAIRYPSQLSPTARHFLQGLLRVDEALRFSCQEALNHPFMRGDCNCRISNRYIESKHRARAEEPVLQHQGSFDTT” here?
**A.** failed

**Q.** With “MSTVKNGTLEQDKLNWFKYLLFGIQHVLVMIAVPITSVFLVAKALSLSDQLTVNLMSATFLVCGLGTLLQSIGVYKFGSRLPFVMIPGGAPIVMFLGIAQEKDLATASGAVILTSLFYFIILPVFKRFLRFFPNIVIGTLLILVSINLIKIYGGLVIGKPDTADFASTLNIGLAFATIAASLFFARVLKGTLSQLSILLGLIFGTILSAFLGQMHFETITQPTIFSLPTIMPFGVPKFDLVATIPLLIFSLISMVEATGQTIAISDLVGKKETAFERVPPTIRGDALISLLGGWLGTSMIITSGENIGIVRATQVRSRYVTIIAGIILLIISVFTPLAHLANAIPVAVVSGTAIIVFSIIGTIGIDILRRVDLHEKGNMYVLAGALTMGLLPILVNGVYTNFPHALQPILNNGLAMGALTAILLNIVFSTHSQADAHQESK” as the sequence, how does the protein production read?
**A.** failed

**Q.** Which protein production does the source give for “MSTVPISGRSQIMLVQDSEILSSSALQYKQFLSKVKISKNATSTAQVRRVGQKVAAATMLYLKQNGLGDMASQMKWEFNVVEDKAVNAFCMPGGKIVVYTGLLKLVGSDAELATVISHEVSHAVARHSNERISQEYLRQMGGNILGAAVSNKSAALQTVIGQAYGIGSQVLITLPYNRKQEYEADKIGLVFMAMAGYNPNAAITFWQKMAAQGNGRVEFLSTHPSDANRIAAIRQYMPEAMKHYKSKLEHHHHHH” here?
**A.** not failed

**Q.** Which protein production does the source give for “MSVDPACPQSLPCFEASDCKESSPMPVICGPEENYPSLQMSSAEMPHTETVSPLPSSMDLLIQDSPDSSTSPKGKQPTSAENSVAKKEDKVPVKKQKTRTVFSSTQLCVLNDRFQRQKYLSLQQMQELSNILNLSYKQVKTWFQNQRMKSKRWQKNNWPKNSNGVTQKASAPTYPSLYSSYHQGCLVNPTGNLPMWSNQTWNNSTWSNQTQNIQSWSNHSWNTQTWCTQSWNNQAWNSPFYNCGEESLQSCMHFQPNSPASDLEAALEAAGEGLNVIQQTTRYFSTPQTMDLFLNYSMNMQPEDV” here?
**A.** not failed

**Q.** With “MSVDQMAHYQRKLAYEMDSWDLYIALNEGQAITIVDGRSEAAFADEHIPGALNLPHKEICFNSTQMLDKSKLYVCYCDGIGCNASTKTALNLLTLGFDVRELIGGLDWWKRDGYATDGKKAQLGTKINCGC” as the sequence, how does the protein production read?
**A.** failed

**Q.** Which protein production does the source give for “MSVDTTVKNRVYPAIPPTQLPEFETIFGHPKPLWMLFMAEFWERFAFYGIRWALTLYIVTQFFDGNAIGEGNANSTYGAYLALVYASAIFGGFIADRIIGYQRSIIIGAVIMACGLFLITVPSRTMFEIGLATIVIGNGLFKPNISSLVGQLYAEGDTRRDRGFTIFYMGINAGSLISPLITSWLAGQVFGTPMQQNYKVVFIASGIGMFLSLLWFWIGKRQLKGIGLSPKGGESIFRTFLIVFGALLAIPLAYLLLAKLNATTLAWILGLLFAVLATLLIVTALRNGKIQRDRVIAMLIIFVFNVMFWMFFEQAGSSFNFLAKNIVDRQILSNWEFPVGWFQSVNPLAIILLAPIIAVIWSLLDKYRIEPSIPRKFSFGLMFNGFGFLILMYALSNLLNASNMIPFWSLIAVYVIQTVGELCLSPIGLSMVTKLAPVRLVGFAMGGWFLSTAIGNNLSGVFASFVSGEEGMTVSSALRGYTFGFWSLIGSGILLFLISPLINRLMHGVK” here?
**A.** failed

**Q.** With “MSVFAGLVEQLADVLQPLFHASAAAAAIVLFTALVRLLVHPLSRASARGQRARARLQPQVAELRKKHGKNPEKLQKALLELHAEEKVSPLSGCLPGLFQLPAFFLLYHLFSNTTIGGEGNELLTHTLFTAPLGDRWADALGDGGPFGTQGLVYLGLFAIVAAVATFNYRRTKRTMAANPLPVGDGEQQVPGLGAINRFMPLMSFFTLFTVAFVPLAAALYVVTSTTWSAVERAALYPVPERSS” as the sequence, how does the protein production read?
**A.** failed

**Q.** For “MSVKGFFFILVFFLVAIMGFLIYISETVVVKYLYIAEALMLLLMLYLILFYRKIVKPMNTIGSGMELLREQDFSSRLSHVGQQEADRVVNVFNRMMEQLKNERLRLREQNHFLDLMINASPMGVIIMTLDEEVSQLNPMAMKMMGVRPEEAEGRKLSEIDSPLALELAAIPNGETSTVRLNDSSIYKCTHSSFVDRGFQHPFYLMEGLTDEVMKAEKKAYEKVIRMIAHEVNNTTAGITSTLDTVEQALSESEGMEDICDVMRVCTERCFSMSHFITRFADVVKIPEPRFTPTNLNDLAFTCKRFMEGMCNDRNIRLQLICDESLDDVKLDASLFEQVLVNIIKNAAESIGQDGQIIIRTSLPTAIEVVDNGPGISKETEAKLFSPFFSTKPNGQGIGLIFIREVLSRHGCTFSLRTYADGLTRFRILFP”, which protein production is on record?
**A.** failed

**Q.** With “MSVKTWRKIAIDIIRDFDHNIMPLFGNPKASETISISPSGDETKVVDKVAENIIISKFKDLGVNVVSEEIGRIDQGSDYTVVVDPLDGSYNFINGIPFFAVSVAIFHEKDPIYAFIYEPIVERLYEGIPGKGSYLNGEKIKVRELAEKPSISFYTKGKGTKIIDKVKRTRTLGAIALELAYLARGALDAVVDIRNYLRPTDIAAGVVIAREAGAIVKDLDGKDVEITFSATEKVNIIAANNEELLETILRSIEK” as the sequence, how does the protein production read?
**A.** not failed
